Sequences and labels used below:
B1: (Ac-Aib^1,Aib^2,10,Glu(NH-hexyl)^3,17)hGhrelin(1-28)-NH2 (peptide)
peptide: Ac-[Aib][Aib][Glu(NH-hexyl)]FLSPEH[Aib]RVQQRK[Glu(NH-hexyl)]SKKPPAKLQPR-NH2
SMILES: CCCCCCNC(=O)CC[C@H](NC(=O)[C@H](CCCCN)NC(=O)[C@H](CCCNC(=N)N)NC(=O)[C@H](CCC(N)=O)NC(=O)[C@H](CCC(N)=O)NC(=O)[C@@H](NC(=O)[C@H](CCCNC(=N)N)NC(=O)C(C)(C)NC(=O)[C@H](Cc1c[nH]cn1)NC(=O)[C@H](CCC(=O)O)NC(=O)[C@@H]1CCCN1C(=O)[C@H](CO)NC(=O)[C@H](CC(C)C)NC(=O)[C@H](Cc1ccccc1)NC(=O)[C@H](CCC(=O)NCCCCCC)NC(=O)C(C)(C)NC(=O)C(C)(C)NC(C)=O)C(C)C)C(=O)N[C@@H](CO)C(=O)N[C@@H](CCCCN)C(=O)N[C@@H](CCCCN)C(=O)N1CCC[C@H]1C(=O)N1CCC[C@H]1C(=O)N[C@@H](C)C(=O)N[C@@H](CCCCN)C(=O)N[C@@H](CC(C)C)C(=O)N[C@@H](CCC(N)=O)C(=O)N1CCC[C@H]1C(=O)N[C@@H](CCCNC(=N)N)C(N)=O
notes: Synthetic ghrelin analog; calculated MW 3477.19, found 3477.40; also called #158
B2: (Aib^2,10,Glu(NH-hexyl)^3,17)hGhrelin(1-28)-NH2 (peptide)
peptide: G[Aib][Glu(NH-hexyl)]FLSPEH[Aib]RVQQRK[Glu(NH-hexyl)]SKKPPAKLQPR-NH2
modifications: N-terminus assumed
SMILES: CCCCCCNC(=O)CC[C@H](NC(=O)[C@H](CCCCN)NC(=O)[C@H](CCCNC(=N)N)NC(=O)[C@H](CCC(N)=O)NC(=O)[C@H](CCC(N)=O)NC(=O)[C@@H](NC(=O)[C@H](CCCNC(=N)N)NC(=O)C(C)(C)NC(=O)[C@H](Cc1c[nH]cn1)NC(=O)[C@H](CCC(=O)O)NC(=O)[C@@H]1CCCN1C(=O)[C@H](CO)NC(=O)[C@H](CC(C)C)NC(=O)[C@H](Cc1ccccc1)NC(=O)[C@H](CCC(=O)NCCCCCC)NC(=O)C(C)(C)NC(=O)CN)C(C)C)C(=O)N[C@@H](CO)C(=O)N[C@@H](CCCCN)C(=O)N[C@@H](CCCCN)C(=O)N1CCC[C@H]1C(=O)N1CCC[C@H]1C(=O)N[C@@H](C)C(=O)N[C@@H](CCCCN)C(=O)N[C@@H](CC(C)C)C(=O)N[C@@H](CCC(N)=O)C(=O)N1CCC[C@H]1C(=O)N[C@@H](CCCNC(=N)N)C(N)=O
notes: Synthetic ghrelin analog; calculated MW 3407.10, found 3407.20; also called #58
B3: (Ac-Gly^1,Aib^2,Glu(NH-hexyl)^3,17)hGhrelin(1-28)-NH2 (peptide)
peptide: GXEFLSPEHQRVQQRKESKKPPAKLQPR
modifications: N-terminal acetyl (Ac-Gly at 1); Aib at 2; Glu(NH-hexyl) at 3 and 17; C-terminal amide
notes: Synthetic ghrelin analog; calculated MW 3492.17, found 3492.00
B4: (Aib^2,Lys(myristyl)^17)hGhrelin(1-28)-NH2 (peptide)
peptide: G[Aib]S(Octanoyl)FLSPEHQRVQQRKK(Myristoyl)SKKPPAKLQPR-NH2
modifications: N-terminus assumed
SMILES: CCCCCCCCCCCCCC(=O)NCCCC[C@H](NC(=O)[C@H](CCCCN)NC(=O)[C@H](CCCNC(=N)N)NC(=O)[C@H](CCC(N)=O)NC(=O)[C@H](CCC(N)=O)NC(=O)[C@@H](NC(=O)[C@H](CCCNC(=N)N)NC(=O)[C@H](CCC(N)=O)NC(=O)[C@H](Cc1c[nH]cn1)NC(=O)[C@H](CCC(=O)O)NC(=O)[C@@H]1CCCN1C(=O)[C@H](CO)NC(=O)[C@H](CC(C)C)NC(=O)[C@H](Cc1ccccc1)NC(=O)[C@H](COC(=O)CCCCCCC)NC(=O)C(C)(C)NC(=O)CN)C(C)C)C(=O)N[C@@H](CO)C(=O)N[C@@H](CCCCN)C(=O)N[C@@H](CCCCN)C(=O)N1CCC[C@H]1C(=O)N1CCC[C@H]1C(=O)N[C@@H](C)C(=O)N[C@@H](CCCCN)C(=O)N[C@@H](CC(C)C)C(=O)N[C@@H](CCC(N)=O)C(=O)N1CCC[C@H]1C(=O)N[C@@H](CCCNC(=N)N)C(N)=O
notes: Synthetic ghrelin analog; calculated MW 3577.35, found 3577.2; also called #217
B5: (Aib^2,8,Ser^3,Glu(NH-hexyl)^17)hGhrelin(1-28)-NH2 (peptide)
peptide: GXSFLSPXHQRVQQRKESKKPPAKLQPR
modifications: Aib at 2 and 8; Ser at 3 (plain, not acylated); Glu(NH-hexyl) at 17; C-terminal amide
notes: Synthetic ghrelin analog; calculated MW 3280.91 (fits an unacylated Ser 3), found 3281.60; also called #219
B6: (Ac-Gly^1,Aib^2,8,Glu(NH-hexyl)^3,17)hGhrelin(1-28)-NH2 (peptide)
peptide: GXEFLSPXHQRVQQRKESKKPPAKLQPR
modifications: N-terminal acetyl (Ac-Gly at 1); Aib at 2 and 8; Glu(NH-hexyl) at 3 and 17; C-terminal amide
notes: Synthetic ghrelin analog; calculated MW 3448.16, found 3447.98
B7: (Ac-Gly^1,Aib^2,10,Glu(NH-hexyl)^3,17)hGhrelin(1-28)-NH2 (peptide)
peptide: Ac-G[Aib][Glu(NH-hexyl)]FLSPEH[Aib]RVQQRK[Glu(NH-hexyl)]SKKPPAKLQPR-NH2
SMILES: CCCCCCNC(=O)CC[C@H](NC(=O)[C@H](CCCCN)NC(=O)[C@H](CCCNC(=N)N)NC(=O)[C@H](CCC(N)=O)NC(=O)[C@H](CCC(N)=O)NC(=O)[C@@H](NC(=O)[C@H](CCCNC(=N)N)NC(=O)C(C)(C)NC(=O)[C@H](Cc1c[nH]cn1)NC(=O)[C@H](CCC(=O)O)NC(=O)[C@@H]1CCCN1C(=O)[C@H](CO)NC(=O)[C@H](CC(C)C)NC(=O)[C@H](Cc1ccccc1)NC(=O)[C@H](CCC(=O)NCCCCCC)NC(=O)C(C)(C)NC(=O)CNC(C)=O)C(C)C)C(=O)N[C@@H](CO)C(=O)N[C@@H](CCCCN)C(=O)N[C@@H](CCCCN)C(=O)N1CCC[C@H]1C(=O)N1CCC[C@H]1C(=O)N[C@@H](C)C(=O)N[C@@H](CCCCN)C(=O)N[C@@H](CC(C)C)C(=O)N[C@@H](CCC(N)=O)C(=O)N1CCC[C@H]1C(=O)N[C@@H](CCCNC(=N)N)C(N)=O
notes: Synthetic ghrelin analog; calculated MW 3449.14, found 3449.20; also called #146
B8: (Ac-Gly^1,Aib^2,10,Glu(NH-hexyl)^3,Lys(biotinyl)^17)hGhrelin(1-28)-NH2 (peptide)
peptide: Ac-G[Aib][Glu(NH-hexyl)]FLSPEH[Aib]RVQQRKK(Biotin)SKKPPAKLQPR-NH2
SMILES: CCCCCCNC(=O)CC[C@H](NC(=O)C(C)(C)NC(=O)CNC(C)=O)C(=O)N[C@@H](Cc1ccccc1)C(=O)N[C@@H](CC(C)C)C(=O)N[C@@H](CO)C(=O)N1CCC[C@H]1C(=O)N[C@@H](CCC(=O)O)C(=O)N[C@@H](Cc1c[nH]cn1)C(=O)NC(C)(C)C(=O)N[C@@H](CCCNC(=N)N)C(=O)N[C@H](C(=O)N[C@@H](CCC(N)=O)C(=O)N[C@@H](CCC(N)=O)C(=O)N[C@@H](CCCNC(=N)N)C(=O)N[C@@H](CCCCN)C(=O)N[C@@H](CCCCNC(=O)CCCC[C@@H]1SC[C@@H]2NC(=O)N[C@@H]21)C(=O)N[C@@H](CO)C(=O)N[C@@H](CCCCN)C(=O)N[C@@H](CCCCN)C(=O)N1CCC[C@H]1C(=O)N1CCC[C@H]1C(=O)N[C@@H](C)C(=O)N[C@@H](CCCCN)C(=O)N[C@@H](CC(C)C)C(=O)N[C@@H](CCC(N)=O)C(=O)N1CCC[C@H]1C(=O)N[C@@H](CCCNC(=N)N)C(N)=O)C(C)C
notes: Synthetic ghrelin analog; calculated MW 3591.32, found 3591.50; also called #166
B9: (Aib^1,2,10,Glu(NH-hexyl)^3,17)hGhrelin(1-28)-NH2 (peptide)
peptide: [Aib][Aib][Glu(NH-hexyl)]FLSPEH[Aib]RVQQRK[Glu(NH-hexyl)]SKKPPAKLQPR-NH2
modifications: N-terminus assumed
SMILES: CCCCCCNC(=O)CC[C@H](NC(=O)[C@H](CCCCN)NC(=O)[C@H](CCCNC(=N)N)NC(=O)[C@H](CCC(N)=O)NC(=O)[C@H](CCC(N)=O)NC(=O)[C@@H](NC(=O)[C@H](CCCNC(=N)N)NC(=O)C(C)(C)NC(=O)[C@H](Cc1c[nH]cn1)NC(=O)[C@H](CCC(=O)O)NC(=O)[C@@H]1CCCN1C(=O)[C@H](CO)NC(=O)[C@H](CC(C)C)NC(=O)[C@H](Cc1ccccc1)NC(=O)[C@H](CCC(=O)NCCCCCC)NC(=O)C(C)(C)NC(=O)C(C)(C)N)C(C)C)C(=O)N[C@@H](CO)C(=O)N[C@@H](CCCCN)C(=O)N[C@@H](CCCCN)C(=O)N1CCC[C@H]1C(=O)N1CCC[C@H]1C(=O)N[C@@H](C)C(=O)N[C@@H](CCCCN)C(=O)N[C@@H](CC(C)C)C(=O)N[C@@H](CCC(N)=O)C(=O)N1CCC[C@H]1C(=O)N[C@@H](CCCNC(=N)N)C(N)=O
notes: Synthetic ghrelin analog; calculated MW 3435.16, found 3435.00; also called #70
B10: (Lys(biotinyl)^17)hGhrelin(1-28)-NH2 (peptide)
peptide: GSS(Octanoyl)FLSPEHQRVQQRKK(Biotin)SKKPPAKLQPR-NH2
modifications: N-terminus assumed
SMILES: CCCCCCCC(=O)OC[C@H](NC(=O)[C@H](CO)NC(=O)CN)C(=O)N[C@@H](Cc1ccccc1)C(=O)N[C@@H](CC(C)C)C(=O)N[C@@H](CO)C(=O)N1CCC[C@H]1C(=O)N[C@@H](CCC(=O)O)C(=O)N[C@@H](Cc1c[nH]cn1)C(=O)N[C@@H](CCC(N)=O)C(=O)N[C@@H](CCCNC(=N)N)C(=O)N[C@H](C(=O)N[C@@H](CCC(N)=O)C(=O)N[C@@H](CCC(N)=O)C(=O)N[C@@H](CCCNC(=N)N)C(=O)N[C@@H](CCCCN)C(=O)N[C@@H](CCCCNC(=O)CCCC[C@@H]1SC[C@@H]2NC(=O)N[C@@H]21)C(=O)N[C@@H](CO)C(=O)N[C@@H](CCCCN)C(=O)N[C@@H](CCCCN)C(=O)N1CCC[C@H]1C(=O)N1CCC[C@H]1C(=O)N[C@@H](C)C(=O)N[C@@H](CCCCN)C(=O)N[C@@H](CC(C)C)C(=O)N[C@@H](CCC(N)=O)C(=O)N1CCC[C@H]1C(=O)N[C@@H](CCCNC(=N)N)C(N)=O)C(C)C
notes: Synthetic ghrelin analog; calculated MW 3595.27, found 3594.90; also called #78

*1 amine or outer side, *2 acyl side, *3 side chain or, on linkers, in order; H or OH if unused. Where no end group is shown, it is not given here. [ ]: non-standard residue; d: D form. The star is where a group is joined. Glu(NH-hexyl) = N5-hexyl-L-glutamine, CCCCCCNC(=O)CC[C@H](N[*:1])C(=O)[*:2]; Biotin = O=C1N[C@H]2[C@H](CS[C@H]2CCCCC(=O)*)N1; Myristoyl = CCCCCCCCCCCCCC(=O)*; Octanoyl = CCCCCCCC(=O)*; Aib = CC(C)(N)C(=O)O

The target of the test is T1, human GH secretagogue receptor (human, UniProt Q92847 1-366).
T1 construct: whole, on cells; the Ca2+ assay used the whole cells; also called hGHS-R; ghrelin receptor
T1 sequence (Q92847 whole entry): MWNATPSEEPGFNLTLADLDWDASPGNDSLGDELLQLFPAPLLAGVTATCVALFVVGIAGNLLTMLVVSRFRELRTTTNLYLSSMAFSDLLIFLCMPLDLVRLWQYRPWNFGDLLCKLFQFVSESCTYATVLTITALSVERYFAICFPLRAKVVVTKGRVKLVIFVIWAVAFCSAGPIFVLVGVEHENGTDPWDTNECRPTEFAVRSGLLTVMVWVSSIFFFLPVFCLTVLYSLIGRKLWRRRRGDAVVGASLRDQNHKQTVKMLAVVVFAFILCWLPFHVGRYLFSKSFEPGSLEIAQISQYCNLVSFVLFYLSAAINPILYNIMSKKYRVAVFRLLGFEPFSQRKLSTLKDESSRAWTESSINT
Put plainly: radioligand competition, (125I)ghrelin on membranes of CHO-K1 cells expressing hGHS-R. As to the method: Membranes for radioligand binding studies can be and were prepared by homogenization of the foregoing CHO-K1 cells expressing the human recombinant GHS receptor in about 20 ml of ice-cold 50 mM Tris-HCl with a Brinkman Polytron® (Brinkman®, Westbury, N.Y., U.S.A.) at setting 6 for about 15 seconds. The homogenates were washed twice by centrifugation (39,000 g/10 minutes) and the final pellets were resuspended in about 50 mM Tris-HCl containing 2.5 mM MgCl₂ and 0.1% bovine serum albumin (BSA). For the selected assay, aliquots of approximately 0.4 ml were incubated with 0.05 nM (¹²⁵I)ghrelin (˜2000 Ci/mmol; Perkin Elmer Life Sciences@, Boston, Mass., U.S.A.) with and without 0.05 ml of unlabeled competing test peptide. After approximately 60 minutes at 4° C., the bound (¹²⁵I)ghrelin was separated from the free ghrelin by rapid filtration through GF/C filters (available from Brandel®, Gaithersburg, Md., U.S.A.) which were pre-soaked in 0.5% polyethyleneimine/0.1% BSA. The filters were then washed 3 times with 5-ml aliquots of ice-cold 50 mM Tris-HCl and 0.1% BSA. The bound radioactivity trapped on the filters was counted by gamma spectrometry (using a spectrometer from Wallace LKB®, Gaithersburg, Md., U.S.A.). Specific binding was determined by subtracting (¹²⁵I)ghrelin bound in the presence of 1000 nM ghrelin (available from Bachem®, Torrence, Calif., U.S.A.) from the total (¹²⁵I)ghrelin bound.
A selection of the preferred embodiments was tested using the receptor binding assay discussed above and the results are reported in Table 2 presented below.
In general terms: Displacement assays read how much labelled ligand stays bound in the presence of the test substance.
For orientation: Ki means a dissociation constant, usually derived from enzyme kinetics or from competition with a known ligand. A high value points to lower affinity. The molecule B1 displayed a Ki of 24.4 nM.

Consider B2, for which the Ki is 0.4 nM. This Ki is about 61-fold lower than that of the molecule before.

Regarding B3, the Ki was 1.68 nM. The figure for B4 is 0.16 nM; for B5 it is 214 nM; for B6 it is 2.94 nM. The figure for B7 is 0.99 nM; for B8 it is 1.28 nM. The figure for B9 is 0.63 nM.

B10 gave a Ki of 0.07 nM.

The values are drawn from patent US20090156483A1 (IPSEN PHARMA S A S, published 2009).
